# From paper PMC10830416
# B1: Synthetic template RNA (74 nt) with 8 nt DNA primer extended to 13 nt, ending in ddG (mixed)
# RNA: GCAGACUGCGUAGGCGUGCAGGAACCUGCACGCCUACGCAGUCUGCAAAAAAAAAAAAAAACAAUAUCGGCGCG
# DNA: CGCGCCGATATTG
# modifications: 3' dideoxyguanosine on the cDNA strand
# Biological target: LINE-1 ORF2p (L1 ORF2p), wild type (Homo sapiens, UniProt O00370 1-1275)
# Test: cryo-EM structure (3.2 A); dTTP bound as incoming nucleotide; dTTP, dATP, ddGTP 1 mM each; 10 mM MgCl2; BS3 cross-linked; Cryo-EM: 600 nm ORF2p, RNA-DNA duplex 2:1 over protein, 30 mM K-HEPES pH 7.9, 150 mM KCl, 10 mM MgCl2, 5 mM EGTA, 1 mM DTT, 37 C 30 s, then 4 mM BS3 on ice 5 mi
# LINE-1 ORF2p (L1 ORF2p), wild type, sequence (O00370 whole entry): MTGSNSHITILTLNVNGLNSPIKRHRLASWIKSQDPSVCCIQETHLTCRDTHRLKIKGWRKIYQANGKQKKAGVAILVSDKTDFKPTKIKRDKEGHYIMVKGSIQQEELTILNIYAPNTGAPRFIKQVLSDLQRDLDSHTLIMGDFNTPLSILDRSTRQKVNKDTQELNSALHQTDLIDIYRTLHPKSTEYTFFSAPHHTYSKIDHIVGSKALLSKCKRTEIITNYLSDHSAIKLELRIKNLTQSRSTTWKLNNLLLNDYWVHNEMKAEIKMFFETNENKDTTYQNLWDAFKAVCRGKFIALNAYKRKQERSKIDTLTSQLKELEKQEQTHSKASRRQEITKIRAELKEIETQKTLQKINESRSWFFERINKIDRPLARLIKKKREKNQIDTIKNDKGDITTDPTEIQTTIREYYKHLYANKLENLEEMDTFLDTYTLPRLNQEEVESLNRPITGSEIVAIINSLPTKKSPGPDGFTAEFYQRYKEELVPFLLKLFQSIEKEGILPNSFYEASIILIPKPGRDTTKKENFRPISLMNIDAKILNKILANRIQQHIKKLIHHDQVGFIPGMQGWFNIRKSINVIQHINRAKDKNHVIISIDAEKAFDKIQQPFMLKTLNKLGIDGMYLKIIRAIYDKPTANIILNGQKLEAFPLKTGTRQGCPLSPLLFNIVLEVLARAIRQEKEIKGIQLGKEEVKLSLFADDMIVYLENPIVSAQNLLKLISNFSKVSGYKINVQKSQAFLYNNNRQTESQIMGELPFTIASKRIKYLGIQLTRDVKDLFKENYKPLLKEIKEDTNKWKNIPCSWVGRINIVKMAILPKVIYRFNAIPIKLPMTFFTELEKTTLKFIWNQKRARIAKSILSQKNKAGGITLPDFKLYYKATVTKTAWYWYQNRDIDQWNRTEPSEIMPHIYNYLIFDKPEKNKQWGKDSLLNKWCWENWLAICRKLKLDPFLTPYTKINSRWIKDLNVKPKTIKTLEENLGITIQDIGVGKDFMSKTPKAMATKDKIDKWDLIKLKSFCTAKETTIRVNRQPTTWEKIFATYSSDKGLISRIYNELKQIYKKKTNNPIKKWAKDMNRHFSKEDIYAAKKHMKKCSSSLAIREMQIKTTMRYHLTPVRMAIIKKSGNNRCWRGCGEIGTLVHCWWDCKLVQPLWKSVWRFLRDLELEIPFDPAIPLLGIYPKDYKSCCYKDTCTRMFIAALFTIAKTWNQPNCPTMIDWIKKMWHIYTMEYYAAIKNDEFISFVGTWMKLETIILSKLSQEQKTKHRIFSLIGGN
binder,measurement,value
B1,binding result,binds
